Results published in US20040018971A1 (published 2004).

Assays:
[1] = molecular target: HLA-A*0301 (purified HLA class I molecule) (human); assay: competition with 125I-labelled probe peptide on purified HLA-A*0301, gel filtration
HLA-A*0301 = molecular target: T1, HLA-A*0301 (human); assay: inhibition of 125I-labelled probe peptide binding to purified HLA-A*0301, gel filtration; ratio to standard peptide 941.12 [..] (11 nM)
T1 construct: also called HLA-A3

HLA-B*0702 = HLA-B*0702 (human); assay: competition vs 125I-labelled probe peptide, purified HLA, gel filtration
HLA-B*3501 = HLA-B*3501 (human); assay: as above
HLA-B*5101 = HLA-B*5101 (human); assay: as above
HLA-B*5301 = HLA-B*5301 (human); assay: as above
HLA-B*5401 = HLA-B*5401 (human); assay: as above
HLA-A*0201 = molecular target: T2, HLA-A*0201 (human); assay: inhibition of 125I-labelled probe peptide binding to purified HLA, gel filtration
T2 construct: also called HLA-A2.1

[2] = molecular target: T3, HLA-A*0301 (purified HLA class I molecule) (human); assay: competition with 125I-labelled probe peptide for purified HLA-A*0301, gel filtration
T3 construct: also called HLA-A3

B1: HER2/NEU A03 motif peptide, position 948, 10 amino acids (peptide)
peptide: TIDVYMIMVK
notes: Synthetic peptide
- relative binding ratio (IC50 of standard peptide / IC50 of test peptide) [1]: 0.013 ratio

B2: HER2/neu peptide, position 674, 10 amino acids (peptide)
peptide: LIKRRQQKIR
notes: Synthetic peptide; also called Her2/neu.674 (10-mer)
- relative binding ratio (IC50 of standard peptide / IC50 of test peptide) (HLA-A*0301): 0.0002

B3: Her2/neu.1120.F1I9 (peptide)
peptide: FPSETDGYI
- IC50 (HLA-B*0702): 220 nM
- IC50 (HLA-B*3501): 655 nM
- IC50 (HLA-B*5101): 31 nM
- IC50 (HLA-B*5301): 37 nM
- IC50 (HLA-B*5401): 156 nM

B4: Her2/neu.1120.F1 (peptide)
peptide: FPSETDGYV
- IC50 (HLA-B*0702): 204 nM
- IC50 (HLA-B*3501): 809 nM
- IC50 (HLA-B*5101): 32 nM
- IC50 (HLA-B*5301): 517 nM
- IC50 (HLA-B*5401): 26 nM

B5: HER2/NEU A03 motif peptide, position 281, 9 amino acids (peptide)
peptide: SMPNPEGRY
notes: Synthetic peptide
- relative binding ratio (IC50 of standard peptide / IC50 of test peptide) [1]: 0.0002 ratio

B6: Her2/neu.1151.F1I10 (peptide)
peptide: FPREGPLPAI
notes: 10-mer analog of the HER2/neu peptide starting at position 1151
- IC50 (HLA-B*0702): 20 nM
- IC50 (HLA-B*3501): 7200 nM
- IC50 (HLA-B*5101): 20 nM
- IC50 (HLA-B*5301): 620 nM
- IC50 (HLA-B*5401): 3.4 nM

B7: HER2/neu peptide, position 303, 10 amino acids (peptide)
peptide: YLSTDVGSCT
notes: Synthetic peptide
- relative binding ratio (HLA-A*0201): 0.0002 ratio (IC50 of standard peptide / IC50 of test peptide)

B8: HER2/NEU A03 motif peptide, position 423, 10 amino acids (peptide)
peptide: SVFQNLQVIR
notes: Synthetic peptide
- relative binding ratio (IC50 of standard peptide / IC50 of test peptide) [1]: 0.017 ratio

B9: HER2/neu peptide, position 915, 9 amino acids (peptide)
peptide: LMTFGAKPY
notes: Synthetic peptide; also called Her2/neu.915 (9-mer)
- relative binding ratio (IC50 of standard peptide / IC50 of test peptide) (HLA-A*0301): 0.0002

B10: HER2/neu peptide, position 725, 10 amino acids (peptide)
peptide: VLGSGAFGTV
notes: Synthetic peptide; also called HER2/neu 725-734
- relative binding ratio (HLA-A*0201): 0.0007 ratio (IC50 of standard peptide / IC50 of test peptide)

B11: HER2/neu peptide, position 181, 10 amino acids (peptide)
peptide: LTLIDTNRSR
notes: Synthetic peptide; also called Her2/neu.181 (10-mer)
- relative binding ratio (IC50 of standard peptide / IC50 of test peptide) (HLA-A*0301): 0.0002

B12: HER2/neu peptide, position 960, 9 amino acids (peptide)
peptide: MIDSECRPR
notes: Synthetic peptide; also called Her2/neu.960 (9-mer)
- relative binding ratio (IC50 of standard peptide / IC50 of test peptide) (HLA-A*0301): 0.0017

B13: HER2/NEU A03 motif peptide, position 402, 10 amino acids (peptide)
peptide: TLEEITGYLY
notes: Synthetic peptide; also called Her2/neu.402
- relative binding ratio (IC50 of standard peptide / IC50 of test peptide) [1]: 0.0001 ratio

B14: HER2/neu peptide, position 295, 9 amino acids (CVTACPYNY) (peptide)
peptide: CVTACPYNY
notes: also called Her2/neu.295 9-mer
- relative binding ratio [2]: 0.0002 ratio (IC50 of standard peptide / IC50 of test peptide)

B15: HER2/NEU A03 motif peptide, position 545, 10 amino acids (peptide)
peptide: RVLQGLPREY
notes: Synthetic peptide
- relative binding ratio (IC50 of standard peptide / IC50 of test peptide) [1]: 0.035 ratio

B16: HER2/neu peptide, position 889, 10 amino acids (peptide)
peptide: MALESILRRR
notes: Synthetic peptide
- relative binding ratio (IC50 of standard peptide / IC50 of test peptide) (HLA-A*0301): 0.0011

B17: HER2/neu peptide, position 1014, 10 amino acids (peptide)
peptide: MGDLVDAEEY
notes: Synthetic peptide; also called Her2/neu.1014 (10-mer)
- relative binding ratio (IC50 of standard peptide / IC50 of test peptide) (HLA-A*0301): 0.0002

B18: Her2/neu.1155.F1 (peptide)
peptide: FPLPAARPA
notes: 9-mer analog of the HER2/neu peptide starting at position 1155
- IC50 (HLA-B*0702): 34 nM
- IC50 (HLA-B*3501): 277 nM
- IC50 (HLA-B*5101): 1900 nM
- IC50 (HLA-B*5401): 1.5 nM

B19: Her2/neu.1155.F1I9 (peptide)
peptide: FPLPAARPI
notes: as for B18
- IC50 (HLA-B*0702): 6.5 nM
- IC50 (HLA-B*3501): 600 nM
- IC50 (HLA-B*5101): 7.1 nM
- IC50 (HLA-B*5301): 282 nM
- IC50 (HLA-B*5401): 3.8 nM

B20: HER2/neu peptide, position 452, 10 amino acids (peptide)
peptide: WLGLRSLREL
notes: Synthetic peptide; also called HER2/neu 452-461
- relative binding ratio (HLA-A*0201): 0.0001 ratio (IC50 of standard peptide / IC50 of test peptide)

B21: HER2/neu peptide, position 664, 10 amino acids (peptide)
peptide: VVVLGVVFGI
notes: Synthetic peptide
- relative binding ratio (HLA-A*0201): 0.0032 ratio (IC50 of standard peptide / IC50 of test peptide)

B22: HER2/neu peptide, position 658, 10 amino acids (peptide)
peptide: VVGILLVVVL
notes: Synthetic peptide
- relative binding ratio (HLA-A*0201): 0.0009 ratio (IC50 of standard peptide / IC50 of test peptide)

B23: HER2/NEU A03 motif peptide, position 840, 10 amino acids (peptide)
peptide: RLVHRDLAAR
notes: Synthetic peptide
- relative binding ratio (IC50 of standard peptide / IC50 of test peptide) [1]: 0.18 ratio

B24: HER2/neu peptide, position 528, 9 amino acids (CVNCSQFLR) (peptide)
peptide: CVNCSQFLR
notes: also called Her2/neu.528 9-mer
- relative binding ratio [2]: 0.0015 ratio (IC50 of standard peptide / IC50 of test peptide)

B25: HER2/neu peptide, position 402, 9 amino acids (peptide)
peptide: TLEEITGYL
notes: Synthetic peptide; also called HER2/neu 402-410
- relative binding ratio (HLA-A*0201): 0.0018 ratio (IC50 of standard peptide / IC50 of test peptide)

B26: HER2/neu peptide, position 665, 10 amino acids (peptide)
peptide: VVLGVVFGIL
notes: Synthetic peptide; also called HER2/neu 665-674
- relative binding ratio (HLA-A*0201): 0.0027 ratio (IC50 of standard peptide / IC50 of test peptide)

B27: HER2/neu peptide, position 726, 10 amino acids (peptide)
peptide: LGSGAFGTVY
notes: Synthetic peptide; also called Her2/neu.726 (10-mer)
- relative binding ratio (IC50 of standard peptide / IC50 of test peptide) (HLA-A*0301): 0.0003
